Assays:
GhCOI1 = assay: Luciferase experiment in tobacco leaves with GhCOI1; type: binding, cotton; conditions: no fluorescence on the control
Text: Method of the luciferase experiment: GhJAZ1 (corresponding encoding gene sequence set forth in SEQ ID No. 39) was subcloned into pCAMBIA-CLuc vector (Chen, H., et al. “Firefly Luciferase Complementation Imaging Assay for Protein-Protein Interactions in Plants.” Plant Physiology 146.2(2008):368-376.) between KpnI and SalI cleavage sites, and the transcription factors such as GhMYC2 (corresponding encoding gene sequence set forth in SEQ ID No. 72), GhNINJA (corresponding encoding gene sequence set forth in SEQ ID No. 74), and GhCOI1 (corresponding encoding gene sequence set forth in SEQ ID No. 80) were subcloned into pCAMBIA-NLuc (Chen, H., et al. “Firefly Luciferase Complementation Imaging Assay for Protein-Protein Interactions in Plants.” Plant Physiology 146.2(2008):368-376.) between KpnI and SalI cleavage sites, respectively. […] Luciferase substrates were applied at the infected leaves before taking images and placed in a dark room for at least 6 min to quench fluorescence, followed by observation on the Nightowl-II LB983 instrument, using IndigoBasic software under the luciferase-5 min setting conditions.

[1] = test system: Human ovarian cancer cells SKOV3 tumor; assay: Ovarian cancer mouse model in vivo, intratumoral injection; parameters: species or system nude mice; conditions: 5 mg/kg intratumoral injection every 2 days, 7 times
Procedure: Human ovarian cancer cells SKOV3 were cultured. Cells were digested by the trypsin before being used for tumor bearing. Cells were washed twice with PBS, followed by resuspending with PBS to a concentration of 1×10^8/mL. The cell suspension was subcutaneously injected into the axilla of nude mice, with an inoculation dose of 0.2 mL per nude mouse. After inoculation, nude mice were randomly assigned into two groups, which were PBS group and GhJAZ1 protein (5 mg/kg) treated group, respectively, with 8 mice in each group. After tumor inoculation, administration began when the tumor volume reached to about 50-100 mm^3. Administration by intratumoral injection was conducted every 2 days for a cycle of 14 days, in total of 7 times. Throughout the entire experiment, the body weight of nude mice was monitored while administration, and tumor size was measured using a vernier caliper according on the formula V=½×length×width×width, to calculate the tumor volume, and plot tumor growth curve. 14 days later, the tumor was removed, took images and weighted.

[2] = test system: cervical cancer cells Hela; assay: CCK8 cell viability detection, Hela; type: cell-based, human; conditions: CCK8, 24 h treatment; read-out: IC50, inhibition of Hela cells
Procedure: CCK8 cell viability detection: cell suspension was seeded in 96-well plates at a concentration of 5×10^4 cells/ml (100 μL/well). The plates were placed in the incubator for pre-culture (at 37° C., 5% CO2), and control and protein agents were added to each well 24 h after seeding. The plates were then placed in the incubator for 24 h, followed by addition of 10 μL CCK8 solution into each well and incubation of the plates in the incubator for 0.5-2 h before the absorbance measurement at 450 nm using a microplate reader.
Analysis of effect of GhJAZ1 protein on the cell cycle and apoptosis of tumor cells

GhCOI1, sequence (as listed by the source): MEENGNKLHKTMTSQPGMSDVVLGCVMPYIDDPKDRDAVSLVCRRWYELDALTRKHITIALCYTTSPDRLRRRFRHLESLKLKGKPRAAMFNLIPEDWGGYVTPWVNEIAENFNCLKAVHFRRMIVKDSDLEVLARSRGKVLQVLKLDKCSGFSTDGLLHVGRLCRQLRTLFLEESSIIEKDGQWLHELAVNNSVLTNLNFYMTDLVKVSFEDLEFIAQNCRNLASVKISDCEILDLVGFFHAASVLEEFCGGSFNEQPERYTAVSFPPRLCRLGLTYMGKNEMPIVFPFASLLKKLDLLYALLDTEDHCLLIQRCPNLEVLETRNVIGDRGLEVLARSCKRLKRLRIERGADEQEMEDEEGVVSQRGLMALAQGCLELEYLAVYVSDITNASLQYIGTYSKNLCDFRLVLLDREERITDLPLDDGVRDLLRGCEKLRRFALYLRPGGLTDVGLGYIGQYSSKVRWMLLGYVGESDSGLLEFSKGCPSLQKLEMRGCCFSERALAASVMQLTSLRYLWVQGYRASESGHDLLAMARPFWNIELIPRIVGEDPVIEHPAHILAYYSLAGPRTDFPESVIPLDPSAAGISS

B1: GhJAZ1: cotton JAZ1 protein, gene number Gh_A05G0260, sequence SEQ ID No. 4; prokaryotically expressed with His tag, about 30 KD (protein)
chain: MSSCSESTAMKPARSPEKPSFAQTCNLLSQYLKEKGSFGDLSLGMTCNVEANGTPVVPPPTMNLFPLNDKSDDVCGRNGGNPKNLTSMDLFPQQAGLASKDDSPNKLEPQTAPMTIFYGGQVIVFNDFPANKAKEIMLLASNSSSQSNNSFNPIPFTSSIARSPIESSIGVPPTSKPVHPAQRAVPGDLPIARRASLHRFLEKRKDRITAKAPYQINNSAAAPSLSGDNKSWLGLAAQSP
modifications: His tag
notes: prokaryotically expressed with His tag, about 30 KD
fluorescence with GhCOI1 after applying luciferase substrate (GhCOI1): weaker fluorescence
volume of tumors vs control group ([1]; SKOV3 in nude mice): highly significantly lower
weight of tumors vs control group ([1]; tumors removed after 14 days): highly significantly lower
IC50 [2]: 553 nM

Reference: US20240279288A1, “APPLICATION OF PLANT JAZ PROTEINS AND DERIVED POLYPEPTIDES IN PREVENTION AND TREATMENT OF HUMAN AND ANIMAL TUMORS” (ANYANG INSTITUTE OF SINO-COTTON INDUSTRY INNOVATION, priority 2021, published 2024)
